# Test results as given in US10653749B2, “Targeting GIV-GEF-GI signaling for treating diverse diseases” (The Regents of the University of California, priority 2015, dated 2020).
# Substitutions are numbered along the chain they refer to. In names and notes the source's numbering stands. Entries after “also recorded” stand apart in the source; their conditions may differ.
# B1: TAT-GIV-CT-WT: Recombinant cell-permeable fusion of TAT-PTD, His and HA tags, linker and human GIV C-terminus (aa 1660-1870), wild type; SEQ ID NO: 2 (protein)
# chain: MRGSHHHHHHGMASMTGGQQMGRDLYDDDDKDRWGSKLGYGRKKRRQRRRGGSTMSGYPYDVPDYAGSMGGSGHSGETLESRHHKIKTGSPGSEVVTLQQFLEESNKLTSVQIKSSSQENLLDEVMKSLSVSSDFLGKDKPVSCGLARSVSGKTPGDFYDRRTTKPEFLRPGPRKTEDTYFISSAGKPTPGTQGKIKLVKESSLSRQSKDSNPYATLPRASSVISTAEGTTRRTSIHDFLTKDSRLPISVDSPPAAADSNTTAASNVDKVQESRNSKSRSREQQSS
# B2: TAT-GIV-CT-FA: GEF-deficient F1685A mutant of the TAT-GIV-CT peptide, dominant-negative; SEQ ID NO: 3 (protein)
# chain: B1 chain with F101A
# What was measured:
# L6 myotubes = experiment: Uptake of TAT peptides and actin staining in L6 myotubes (confocal); format: cell-based, rat; details: 0.2% FBS overnight
# Description: Dilutions of antibodies are as follows: anti-phospho-GIV-Tyr1764 (1:200) (Ventana/Roche and Spring Biosciences); anti-HA (1:300) (Covance); anti-GFP, mouse anti-InsRβ and mouse anti-phospho-IRS1 (1:200) from Santa Cruz Biotechnologies; DAPI 1:1,000 (Molecular Probes); Secondary goat anti-rabbit (594) and goat anti-mouse (488) Alexa conjugated antibodies (1:500) from Molecular Probes. Coverslips were mounted with ProLong Gold (Life Technologies). Cells were imaged on a Leica SPE confocal microscope using a 63× oil objective using 488, 561 and 405 laser lines for excitation. Images were scanned using a line-average of 3. All images were processed using ImageJ software and assembled into figure panels using Photoshop and Illustrator (Adobe).
# Transfection was carried out with GeneJuice (Novagen) for DNA plasmids or Oligofectamine (Invitrogen) for siRNA oligos according to manufacturer's protocols. Silencer negative Control scrambled (Scr) siRNA used as control was purchased from Ambion and the previously validated (Enomoto et al., 2005) GIV siRNA sequence used was custom-ordered from Dharmacon. For TAT-construct transduction, cells were incubated with 300-800 nM of the TAT-proteins for 30 min at 37° C. prior to three washes with PBS and addition of fresh growth media. […]
# [1] = molecular target: T1, Gαi1-YFP / CFP-Gβ1 / Gγ2 heterotrimer (Gi) (Homo sapiens, UniProt P63096); experiment: FRET assay of Gi heterotrimer dissociation after EGF in GIV-depleted HeLa cells; format: cell-based
# T1 construct: expressed in transfected cells; host or cells: HeLa cells stably depleted of GIV by shRNA
# T1 sequence (P63096 2-354 limits assumed, one chain of several): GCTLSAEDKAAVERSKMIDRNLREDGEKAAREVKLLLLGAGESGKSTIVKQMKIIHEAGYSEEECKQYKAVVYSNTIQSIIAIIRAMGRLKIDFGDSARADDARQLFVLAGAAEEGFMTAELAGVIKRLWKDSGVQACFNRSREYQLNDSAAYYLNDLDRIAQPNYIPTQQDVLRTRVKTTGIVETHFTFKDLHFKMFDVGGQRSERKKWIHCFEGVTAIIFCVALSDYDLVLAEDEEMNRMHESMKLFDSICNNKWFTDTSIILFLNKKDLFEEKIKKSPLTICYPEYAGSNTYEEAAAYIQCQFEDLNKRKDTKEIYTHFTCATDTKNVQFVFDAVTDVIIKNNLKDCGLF
# Procedure: HeLa cells stably depleted of GIV by shRNA were grown to 60-70% confluence in sterile 35 mm MatTek glass bottom dishes. One microgram each of various donor and acceptor plasmid constructs were transfected with Trans-IT-LT1 transfection reagent (Minis Bio LLC) using manufacturer's protocol. Cells were starved overnight in serum-free DMEM (Gibco), transduced the following morning with TAT proteins for 30 min, washed with PBS and subsequently the media was switched to DMEM without phenol red before live cell imaging. EGF stimulation was carried out ˜4 h after TAT transduction. Fluorescence microscopy studies were conducted on single cells in mesoscopic regime to avoid inhomogeneities from samples as previously rationalized by Midde et al. (55-57). Olympus FV1000 inverted confocal laser scanning microscope was used for live cell FRET imaging (UCSD-Neuroscience core facility). The microscope is stabilized on a vibration proof platform, caged in temperature controlled (37° C.) and CO2 (5%) supplemented chamber. A 60×1.49 N. An oil immersed objective designed to minimize chromatic aberration and enhance resolution for 405-605 nm imaging was used. Olympus Fluoview inbuilt software was used for data acquisition through the method of sensitized emission. A 405 nm laser diode was used to excite ECFP and 515 nm Argon-ion laser was used to excite EYFP. The bandwidth of spectral emission was adjusted through grating to minimize bleed through. Enhanced CFP emission was collected from 425 to 500 nm and EYFP emission was collected through 535-600 nm and passed through a […] confocal pinhole before being sent to photomultiplier tube to reject out of plane focused light. Every field of view is imaged sequentially through ECFPex/ECFPem, ECFPex/EYFPem and EYFPex/EYFPem (3 excitation and emission combinations) and saved as donor, transfer and acceptor image files through an inbuilt wizard.
# To obtain the FRET images and efficiency of energy transfer values a RiFRET plugin in Image J software was used (58). FRET images were obtained by pixel-by-pixel ratiometric intensity method and efficiency of transfer was calculated by the ratio of intensity in transfer channel to the quenched (corrected) intensity in the donor channel. Cells transfected with CFP and YFP alone were imaged under all three previously mentioned excitation and emission combinations and are used to correct for cross-talk. Furthermore, untransfected cells and a field of view without cells were imaged to correct for background, autofluorescence and light scattering. Cells chosen for imaging were ensured for identical expression of donor and acceptor probes by the photons collected in individual channels.
# HeLa cells = experiment: Scratch-wound 2D cell migration assay; format: cell-based; details: compared to mock treatment, 12 h and 24 h
# Procedure: Scratch-wound assays were done as described (49). Briefly, monolayer cultures (100% confluent) of HeLa cells were incubated first in a 0.2% serum media over night. The following morning, monolayers of HeLa cells were first transduced with TAT peptides for 30 min, then washed three times with PBS and placed again in a 0.2% serum media for 1 h 30 min before scratch-wounding. The wounds were created using a 20 μL pipette tip. Transduction with TAT peptides was repeated at 12 h into the wound healing assay (a total of two times). Healing wounds were monitored by phase-contrast microscopy over the next 24 h and serially photographed using a Canon digital SLR camera. To quantify cell migration (expressed as percent of wound closure) the acquired images were analyzed using Image J software to measure open wound area. Results were expressed as % closure by calculating the difference between the wound area at 0 h, 12 h and that at 24 h divided by the area at 0 h×100. Invasion assays were performed using Corning Transwell plates according to the manufacturer's protocol.
# Scratch-wound assays were done as described previously (13). […] Healing wounds were monitored by phase-contrast microscopy over the next 24 h and migration index was quantified (expressed as % wound closure) by measuring the wounded area using Image J software.
Molecule,actin stress-fiber formation in L6 myotubes (L6 myotubes),"loss of FRET / dissociation of trimeric Gi in response to EGF ([1]; 50 nM EGF, 5 min)","FRET after EGF stimulation ([1]; 50 nM EGF, 5 min, p=0.0011)","FRET before EGF stimulation ([1]; plasma membrane ROIs, t0)",2D-migration and wound closure (HeLa cells),"loss of FRET / dissociation of trimeric Gi in response to EGF ([1]; 50 nM EGF, 5 min, listed as FA)",2D-migration and wound closure (HeLa cells; listed as FA)
B1,enhancement,significant loss of FRET; also recorded: sufficient to trigger dissociation of trimeric Gi,0.15±0.07,0.22±0.04,enhances,,
B2,disrupted,No similar loss of FRET,,,,not,delayed wound closure and not
